Experimental data as given in paper PMC7069927, “Amyloid formation of bovine insulin is retarded in moderately acidic pH and by addition of short-chain alcohols” (European Biophysics Journal, 2020).
Like-named read-outs stand apart in the source and are kept apart here.

Legend:
[1] = biological target: T1, bovine insulin (Bos taurus, UniProt P01317); test: Effect of short-chain alcohols on insulin fibrillation kinetics (ThT) at pH 4.0; conditions: ammonium acetate buffer pH 4.0, ThT, 60 °C; for retardation of insulin fibril formation (half-time) at the most effective alcohol:buffer mixing ratio: quiescent, triplicate, alcohol range 0-50% v/v; for alcohol concentration of maximal retarding effect: volume fraction
T1 construct: 51 amino acid residues, distributed over two polypeptide chains (A and B) that are interconnected by disulphide bridges; purchased Sigma-Aldrich I5500
Experimental: (§1) Aggregation kinetics was monitored by ThT fluorescence in a Fluostar Omega or Fluostar Optima fluorescence plate reader (BMG Labtech, Ortenberg, Germany) at 60 °C without shaking. Samples were deposited in 100 μl triplicate in black half-area 96-well microtiter plates with transparent bottoms (Corning #3881), and the plates were sealed with plastic film (Bio-Rad Laboratories, Hercules, CA, U.S.) to avoid sample evaporation. ThT fluorescence emission was detected using bottom optics, a 440 ± 10 nm band pass excitation filter, and a 485 ± 12 nm band pass emission filter. The ThT concentration was 7.2 μM in all experiments.
To mimic conditions relevant to industrial purification of insulin, we investigated the effect of three short-chain alcohols (methanol, ethanol and isopropanol) on insulin aggregation in ammonium acetate buffer. We monitored ThT kinetics as function of increasing concentration (range: 0–50% v/v) of each alcohol (Fig. 5a–c). […] Methanol is apparently a weaker modulator (it retards fibril formation by ~ 2 times); higher concentrations (40%) are also needed to reach maximal effect.

[2] = Thioflavin-T kinetic assay of insulin amyloid formation; format: physicochemical, bovine; conditions: 64 μM insulin, 60 °C, quiescent; for half-time of amyloid formation: ThT 7.2 μM
Experimental: as §1
We set up thioflavin-T kinetic assays to monitor the aggregation of bovine insulin in microtitre plates at 60 °C and under quiescent conditions, initially at pH 2.2 to establish a reproducible method, then extending to pH 7.0 to reflect native conditions. The resulting kinetic curves (presented as normalized ThT fluorescence) are presented in Fig. 1a, b; each condition was analysed in triplicate and all curves are shown. The aggregation rate of bovine insulin increases with increase in monomer concentration at pH 2.2 (Fig. 1a), which is intuitively expected and also consistent with many previous studies (see for example Brange and Langkjoer [1993]; Nielsen et al. [2001]). […] The scaling component, i.e. the slope of the fitted straight line to the half-time data, for insulin aggregation kinetics at pH 2.2 is − 1.02, which is consistent with a nucleation-dependent aggregation mechanism (Meisl et al. [2016]). […] This is, from an amyloid formation point of view, an anomalous behaviour that can be explained by that insulin, in addition to existing as a monomer, populates higher-order oligomeric states that are resilient to amyloid formation; or interfere with fibril elongation (Ziaunys et al. [2018]). These higher-order states can be significant, or even predominant, at pH 7.0 despite that no stabilizing zinc was added (Ziaunys et al. [2018]; Waugh et al. [1953]; Goldman and Carpenter, [1974]).

[3] = centrifuged 13,400 rpm 15 min, absorption 280 nm
Experimental: The solubility of insulin as function of pH was estimated by preparing insulin solutions with varying pH at a concentration of 1 mg/ml. The solutions were centrifuged at 13,400 rpm in an Eppendorf Minispin tabletop centrifuge (Eppendorf, Hamburg, Germany) for 15 min to pellet non-dissolved insulin. The solubility was estimated by measuring the insulin concentration in the supernatant by absorption (see above). The same strategy was used to determine fibril formation yields at different pH values, using pre-formed fibrils as starting material.

[4] = Fibril formation yield (centrifugation to sediment amyloid fibrils); format: physicochemical, bovine
Experimental: The fibril yields for the reactions shown in Fig. 1 were estimated by centrifugation experiments to sediment amyloid fibrils formed at a starting concentration of 58 μM insulin. […] We also used centrifugation to sediment insoluble insulin in 1 mg/ml solutions to investigate the solubility across a range of buffers with different pH values (Fig. 1d).

[5] = AFM imaging of the end point of the fibrillation reaction; format: physicochemical, bovine; conditions: aggregated in ammonium acetate pH 4.0 in presence of 30% (vol/vol) EtOH; on mica
Experimental: For atomic force microscopy, fibrillar insulin was deposited on freshly cleaved mica and left to settle for 5 min, after which the mica plates were rinsed with milli-Q water and dried under a gentle stream of nitrogen. AFM images were recorded on an NTEGRA Prima setup (NT-MDT, Moscow, Russian Federation) equipped with a gold-coated single crystal silicon cantilever (NSG-01, spring constant ~ 5.1 N/m, resonance frequency of ~ 150 kHz). The images were processed in the Gwyddion software package (Nečas and Klapetek [2012]) using planar subtraction, polynomial background subtraction and correction for linear aberrations. For fluorescence microscopy, 150 µl of insulin solution was placed on positively charged glass (Thermo Scientific, Waltham, MA, USA) and sealed with a 18 × 18 mm coverslip. A Zeiss AxioObserver.Z1 inverted fluorescence microscope (Carl Zeiss AG, Oberkochen, Germany) with a 100 × oil immersion objective (NA = 1.46) was used in combination with a Photometrics Evolve EMCCD camera (Photometrics, Tuscon, AZ, USA), 100 ms exposure time, to obtain the images of the samples.
This is probably due to ThT’s fluorescence being sensitive both to ThT binding affinity and to the quantum yield of each bound dye molecule (Lindberg et al.[2015], [2017]). […]

[6] = ref Wintersteiner and Abramson [1933]; cited from earlier work

T1 sequence (P01317 25-54 limits assumed): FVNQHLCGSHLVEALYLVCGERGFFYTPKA
T1 sequence (P01317 85-105 limits assumed): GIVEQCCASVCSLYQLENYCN

CC(C)O [isopropanol]
retardation of insulin fibril formation (half-time) at the most effective alcohol:buffer mixing ratio [1]: three to four | alcohol concentration of maximal retarding effect [1]: 30–35%

Bovine insulin
half-time of amyloid formation ([2]; ammonium acetate buffer (200 mM) pH 4.0, printed 'ammonium phosphate', triplicate): 7.7 ± 0.8 h | half-time of amyloid formation ([2]; citrate-phosphate buffer pH 4.0, triplicate): 6.5 ± 0.1 h | slowing of amyloid formation kinetics as measured by half-time of fibril formation ([2]; pH 4.0 compared with pH 3.0 or pH 7.0, citrate-phosphate buffer, ThT, triplicate): ~ 50% | amyloid formation ([2]; pH 5.0-6.0, citrate-phosphate buffer, ThT, no reliable half-times within assayed time range): strongly inhibited | insulin solubility ([3]; across most of the assayed pH range except pH 5.0-6.0, 1 mg/ml (172 μM), pre-dissolved in 100 mM HCl): high | insulin solubility ([3]; pH 4.0, 1 mg/ml): solubility remains high | insulin solubility ([3]; pH 5.0-6.0, close to pI, 1 mg/ml): low solubility | fibril yield ([4]; pH 2.2, starting concentration 58 μM insulin, absorption of supernatant): 91 ± 8% | fibril yield ([4]; pH 4.0, absorption of supernatant): > 99.5% | fibril yield ([4]; pH 7.0, starting concentration 58 μM insulin, absorption of supernatant, n = 3): 90 ± 5% | size of oligomeric particles at end point of fibrillation (AFM) [5]: 2–3 nm | isoelectric point (pI) [6]: 5.3

CCO [Ethanol, ethanol]
retardation of insulin fibril formation (half-time) at the most effective alcohol:buffer mixing ratio [1]: three to four | alcohol concentration of maximal retarding effect [1]: 30–35%

CO [Methanol, methanol]
retardation of insulin fibril formation (half-time) at the most effective alcohol:buffer mixing ratio [1]: ~ 2 times | alcohol concentration of maximal retarding effect [1]: 40%
